{"source": "paper PMC6736995", "about": "“Insights Into Enhanced Complement Activation by Structures of Properdin and Its Complex With the C-Terminal Domain of C3b” (Frontiers in Immunology, 2019)", "molecules": {"B1": {"name": "C3/C3b-CTC domain (C-terminal C345c domain of C3/C3b) (domain or fragment, human)", "chain": "GSNCFIQKSDDKVTLEERLDKACEPGVDYVYKTRLVKVQLSNDFDEYIMAIEQTIKSGSDEVQVGQQRTFISPIKCREALKLEEKKHYLMWGLSSDFWGEKPNLSYIIGKDTWVEHWPEEDECQDEENQKQCQDLGAFTESMVVFGCPN", "notes": "N-terminal Gly-Ser cloning scar from the BamHI site; complement C3, human, CTC (C345c) domain, res; 1517-1663; stop codon before the NotI site, no alanine extension; also called C3b/C3 CTC domain"}, "B2": {"name": "P^N12/456, monomerized properdin (non-covalent complex of P^N12 with P^456) (complex, human)", "chain 1": "GSDPVLCFTQYEESSGKCKGLLGGGVSVEDCCLNTAFAYQKRSGGLCQPCRSPRWSLWSTWAPCSVTCSEGSQLRYRRCVGWNGQCSGKVAPGTLEWQLQACEDQQCCPEMGGWSGWGPWEPCSVTCSKGTRTRRRACNHPAPKCGGHCPGQAQESEACDTQQVCP", "chain 2": "GSVAGGWGPWGPVSPCPVTCGLGQTMEQRTCNHPVPQHGGPFCAGDATRTHICNTAVPCPVDGEWDSWGEWSPCIRRNMKSISCQEIPGQQSRGRTCRGRKFDGHRCAGQQQDIRHCYSIQHCPLKGSWSEWSTWGLCMPPCGPNPTRARQRLCTPLLPKYPPTVSMVEGQGEKNVTFWGRPLPRCEELQGQKLVVEEKRPCLHVPACKDPEEEELAAA", "modifications": "C-mannosylated Trp-ladder tryptophans; O-fucosylation of Thr92 and Thr151 (observed in the structure) | C-mannosylated Trp-ladder tryptophans; O-fucosylation of Thr272; N-glycosylation of Asn428", "notes": "N-terminal Gly-Ser cloning scar from the BamHI site; properdin, human, P^N12, res; 28-191 (N-terminal STB domain, TSR1, TSR2); stop codon before the NotI site, no alanine extension; 256-469 (TSR4, TSR5, TSR6); C-terminal extension of three alanines from the NotI site; TSR3 (res. 192-255) is absent; source: HEK293-EBNA, co-expressed (1:1 DNA ratio), purified from supernatant (Ni-Sepharose Excel, …)"}, "B3": {"name": "catalytically inactive (S699A) double-gain-of-function (D279G, N285D) factor B mutant (enzyme, human, UniProt P00751 26-764, looked up)", "chain": "TPWSLARPQGSCSLEGVEIKGGSFRLLQEGQALEYVCPSGFYPYPVQTRTCRSTGSWSTLKTQDQKTVRKAECRAIHCPRPHDFENGEYWPRSPYYNVSDEISFHCYDGYTLRGSANRTCQVNGRWSGQTAICDNGAGYCSNPGIPIGTRKVGSQYRLEDSVTYHCSRGLTLRGSQRRTCQEGGSWSGTEPSCQDSFMYDTPQEVAEAFLSSLTETIEGVDAEDGHGPGEQQKRKIVLDPSGSMNIYLVLDGSGSIGASDFTGAKKCLVNLIEKVASYGVKPRYGLVTYATYPKIWVKVSEADSSNADWVTKQLNEINYEDHKLKSGTNTKKALQAVYSMMSWPDDVPPEGWNRTRHVIILMTDGLHNMGGDPITVIDEIRDLLYIGKDRKNPREDYLDVYVFGVGPLVNQVNINALASKKDNEQHVFKVKDMENLEDVFYQMIDESQSLSLCGMVWEHRKGTDYHKQPWQAKISVIRPSKGHESCMGAVVSEYFVLTAAHCFTVDDKEHSIKVSVGGEKRDLEIEVVLFHPNYNINGKKEAGIPEFYDYDVALIKLKNKLKYGQTIRPICLPCTEGTTRALRLPPTTTCQQQKEELLPAQDIKALFVSEEEKKLTRKEVYIKNGDKKGSCERDAQYAPGYDKVKDISEVVTPRFLCTGGVSPYADPNTCRGDAGGPLIVHKRSRFIQVGVISWGVVDVCKNQKRQKQVPAHARDFHINLFQVLPWLKEKLQDEDLGFL", "notes": "complement factor B, human; also called FB^dgf‡"}}, "key": {"[1]": {"target": "C3b (Homo sapiens) (UniProt P01024)", "sequence (P01024 23-667)": "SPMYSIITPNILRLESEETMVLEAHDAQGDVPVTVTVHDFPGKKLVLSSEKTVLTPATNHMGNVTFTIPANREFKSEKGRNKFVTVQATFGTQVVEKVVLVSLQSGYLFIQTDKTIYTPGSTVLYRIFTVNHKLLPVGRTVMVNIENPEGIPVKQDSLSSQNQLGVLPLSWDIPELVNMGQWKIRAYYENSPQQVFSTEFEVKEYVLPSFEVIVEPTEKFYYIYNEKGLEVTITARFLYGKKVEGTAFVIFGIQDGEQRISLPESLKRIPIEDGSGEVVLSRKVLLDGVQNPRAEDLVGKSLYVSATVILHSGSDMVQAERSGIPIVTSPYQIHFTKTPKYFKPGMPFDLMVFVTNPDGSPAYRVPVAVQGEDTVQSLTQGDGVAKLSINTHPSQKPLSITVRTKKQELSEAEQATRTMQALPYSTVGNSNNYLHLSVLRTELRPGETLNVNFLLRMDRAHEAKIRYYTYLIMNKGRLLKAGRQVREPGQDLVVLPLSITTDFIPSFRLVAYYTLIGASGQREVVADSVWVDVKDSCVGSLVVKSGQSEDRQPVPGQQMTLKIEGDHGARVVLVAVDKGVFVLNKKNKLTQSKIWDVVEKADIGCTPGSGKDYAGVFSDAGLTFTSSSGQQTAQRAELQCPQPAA", "settings": "cited from earlier work"}, "[2]": {"target": "T1, P^N1′/456, biotinylated monomerized properdin (complex of P^N1′ with P^456) (human, UniProt P27918 28-134; P27918 256-469, biotinylated with EZ-Link Maleimide-PEG2-Biotin as described for C3b (site not stated))", "T1 construct": "N-terminal Gly-Ser cloning scar from the BamHI site; properdin, human, P^N1′, res; 28-134; includes an additional Cys-Pro (res. 133-134) at the C-terminus of TSR1; C-terminal extension of three alanines from the NotI site; 256-469 (TSR4, TSR5, TSR6); The maleimide-biotin is surmised to sit on a free cysteine at the C-terminus of P^N1′ (Cys132/Cys133); source: HEK293-EBNA, co-expressed, purified …", "test": "SPR; biotinylated P^N1′/456 on a SensEye P-Strep chip; C3/C3b-CTC injected 2.4 × 10^-2 to 200 μM (200 μM point left out as an outlier); 20 mM HEPES pH 7.4, 0.005% Tween-20, 150 mM NaCl; 25°C; equilibrium end-point fit", "settings": "both partners purified"}, "[3]": {"target": "T2, C3 convertase C3bBb^dgf‡ (human, UniProt P01024 23-667; P01024 749-1663; P00751 260-764, S699A | D279G | N285D, biotin (EZ-Link Maleimide-PEG2-Biotin) on the free cysteine that is generated after hydrolysis of the reactive thioester)", "T2 construct": "complement C3 beta chain, human; C3b alpha' chain, human; In the convertase stability assay (functional rows) the same complex was formed in solution from C3b that was not biotinylated; source: formed on the SPR chip: FB^dgf‡ (100 nM, 5 min) then FD (100 nM, 5 min) over biotinylated C3b, 5 mM MgCl2; copies: + +", "T2 sequence (P01024 23-667, stated change not applied, one chain of several)": "as the sequence (P01024 23-667) above", "test": "SPR; C3bB^dgf‡ or C3bBb^dgf‡ generated on a C3b coated chip before each injection; P^N12/456 injected (2.4 × 10^-4 to 2 μM on C3bB, 1.2 × 10^-4 to 1 μM on C3bBb); 20 mM HEPES pH 7.4, 0.005% Tween-20, 150 mM NaCl, 5 mM MgCl2; 25°C; equilibrium end-point fit", "settings": "both partners purified"}, "[4]": {"target": "T3, C3 pro-convertase C3bB^dgf‡ generated on a C3b coated chip (human, UniProt P01024 23-667; P01024 749-1663; P00751 26-764, S699A | D279G | N285D, biotin (EZ-Link Maleimide-PEG2-Biotin) on the free cysteine that is generated after hydrolysis of the reactive thioester)", "T3 construct": "complement C3 beta chain, human; C3b alpha' chain, human; source: formed on the SPR chip: 100 nM FB^dgf‡ injected for 5 min over biotinylated C3b, 5 mM MgCl2; copies: + +", "T3 sequence (P01024 23-667, stated change not applied, one chain of several)": "as the sequence (P01024 23-667) above", "test": "SPR; C3bB^dgf‡ or C3bBb^dgf‡ generated on a C3b coated chip before each injection; P^N12/456 injected (2.4 × 10^-4 to 2 μM on C3bB, 1.2 × 10^-4 to 1 μM on C3bBb); 20 mM HEPES pH 7.4, 0.005% Tween-20, 150 mM NaCl, 5 mM MgCl2; 25°C; equilibrium end-point fit", "settings": "both partners purified"}, "[5]": {"target": "T4, C3b, biotinylated at the free cysteine of the hydrolysed thioester (human, UniProt P01024 23-667; P01024 749-1663, biotin (EZ-Link Maleimide-PEG2-Biotin) on the free cysteine that is generated after hydrolysis of the reactive thioester)", "T4 construct": "complement C3 beta chain, human; C3b alpha' chain, human; Coupled to a streptavidin chip through the biotin; also called C3b coated chip; source: generated from C3 (purified from human plasma) with FB and FD, biotinylated, purified by SEC", "T4 sequence (P01024 23-667, one chain of several)": "as the sequence (P01024 23-667) above", "test": "SPR; biotinylated C3b on a SensEye P-Strep chip; P^N12/456 injected 1.2 × 10^-3 to 10 μM; low ionic strength, 20 mM HEPES pH 7.4, 0.005% Tween-20, 50 mM NaCl; 25°C; equilibrium end-point fit", "settings": "both partners purified"}, "[6]": {"target": "T4, C3b, biotinylated at the free cysteine …", "test": "SPR; biotinylated C3b on a SensEye P-Strep chip (IBIS-MX96); P^N12/456 injected 4.9 × 10^-3 to 40 μM in 14 2-fold steps; 20 mM HEPES pH 7.4, 0.005% Tween-20, 150 mM NaCl; 25°C; equilibrium end-point fit", "settings": "both partners purified"}, "[7]": {"target": "T4, C3b, biotinylated at the free cysteine …", "test": "SPR; formation of C3bB and C3bBb on the chip: 100 nM FB^dgf‡ injected for 5 min over biotinylated C3b, then 100 nM FD for 5 min; buffer with 5 mM MgCl2; 25°C", "settings": "both partners purified"}}}
{"molecule": "Properdin single vertices (from UniProt P27918)", "values": [{"measurement": "Kd", "setting": "[1]", "result": 7.8, "unit": "µM"}]}
{"molecule": "B1", "values": [{"measurement": "Kd", "setting": "[2]", "result": "18.6 ± 1.6", "unit": "µM"}]}
{"molecule": "B2", "values": [{"measurement": "Kd", "setting": "[3]", "result": "0.034 ± 0.001", "unit": "µM"}, {"measurement": "Kd", "setting": "[4]", "result": "0.098 ± 0.002", "unit": "µM"}, {"measurement": "Kd", "setting": "[5]", "result": "0.69 ± 0.04", "unit": "µM"}, {"measurement": "Kd", "setting": "[6]", "result": "6.8 ± 0.2", "unit": "µM"}]}
{"molecule": "B3", "values": [{"measurement": "binding result", "setting": "[7]", "result": "binds"}]}
